Measured values reported in publication PMC6385983, “SNZ3 Encodes a PLP Synthase Involved in Thiamine Synthesis in Saccharomyces cerevisiae” (G3: Genes|Genomes|Genetics, 2018).

Substrate: O=CC(O)COP(=O)(O)O
Experiment: purified protein
Assay type: biochemical, Saccharomyces cerevisiae
Settings: 1 mM ribose-5-phosphate, 10 mM ammonium sulfate (20 mM NH4), 50 mM Tris-HCl pH 8.0, 37 °C, 85 µM Snz3p, no glutaminase subunit, racemic D/L substrate

B1: Snz3p (Saccharomyces cerevisiae S288C) (protein)
chain: MSEFKVKTGLAQMLKGGVIMDVVTPEQAIIAERAGACAVMALERIPADMRKSGQVCRMSDPRMIKEIMEAVSIPVMAKVRIGHFVEAQILEELQVDYIDESEVLTPADWTHHIEKHNFKVPFVCGAKDLGEALRRINEGAAMIRTKGEAGTGDVSEAVKHITKIKAEIQQYKENLKTESDFAAKATELRVPVDLLKTTLSEGKLPVVNFAAGGVATPADAALLMQLGCEGVFVGSGIFKSSDPEKLACAIVEATTHYDNPAKLLQVSSDLGDLMGGISIQSINEAGGKNGARLSEIGW
notes: full-length SNZ3 in pTEV5 (NheI/NcoI), His6 tag removed with rTEV, expressed in E. coli BL21-AI; assayed without Sno glutaminase subunit
B1 was tested, and the Km was 290 ± 30 µM and the kcat was 0.0007 s⁻¹.
